Results published in patent publication US20200369773A1 (CELDARA MEDICAL, published 2020).

B1: scFvP3G5VHVL-mCD28H-mCD28TM-mCD28CS-mCD3zICS (anti-Fn14 CAR) (receptor)
chain: QVQLQQSGPEVVRPGVSVKISCKGSGYTFTDYGIHWVKQSHAKSLEWIGVISTYNGYTNYNQKFKGKATMTVDKSSSTAYMELARLTSEDSAIYYCARAYYGNLYYAMDYWGQGTSVTVSSGGGGSGGGGSGGGGSDIVLTQSPASLAVSLGQRATISCRANKSVSTSSYSYMHWYQQKPGQPPKLLIKYASNLESGVPARFSGSGSGTDFILNIHPVEEEDAATYYCQHSRELPFTFGSGTKLEIKIKEKHLCHTQSSPKLFWALVVVAGVLFCYGLLVTVALCVIWTNSRRNRLLQSDYMNMTPRRPGLTRKPYQPYAPARDFAAYRPRAKFSRSAETAANLQDPNQLYNELNLGRREEYDVLEKKRARDPEMGGKQQRRRNPQEGVYNALQKDKMAEAYSEIGTKGERRRGKGHDGLYQGLSTATKDTYDALHMQTLAPR
notes: Chimeric antigen receptor on transduced mouse T cells
B2: scFvP3G5VLVH-mCD28H-mCD28TM-mCD28CS-mCD3zICS (anti-Fn14 CAR) (receptor)
chain: DIVLTQSPASLAVSLGQRATISCRANKSVSTSSYSYMHWYQQKPGQPPKLLIKYASNLESGVPARFSGSGSGTDFILNIHPVEEEDAATYYCQHSRELPFTFGSGTKLEIKGGGGSGGGGSGGGGSQVQLQQSGPEVVRPGVSVKISCKGSGYTFTDYGIHWVKQSHAKSLEWIGVISTYNGYTNYNQKFKGKATMTVDKSSSTAYMELARLTSEDSAIYYCARAYYGNLYYAMDYWGQGTSVTVSSIKEKHLCHTQSSPKLFWALVVVAGVLFCYGLLVTVALCVIWTNSRRNRLLQSDYMNMTPRRPGLTRKPYQPYAPARDFAAYRPRAKFSRSAETAANLQDPNQLYNELNLGRREEYDVLEKKRARDPEMGGKQQRRRNPQEGVYNALQKDKMAEAYSEIGTKGERRRGKGHDGLYQGLSTATKDTYDALHMQTLAPR
notes: as for B1
B3: mouse truncated CD19 (mtrCD19), mock construct without CAR (other)
chain: RPQKSLLVEVEEGGNVVLPCLPDSSPVSSEKLAWYRGNQSTPFLELSPGSPGLGLHVGSLGILLVIVNVSDHMGGFYLCQKRPPFKDIWQPAWTVNVEDSGEMFRWNASDVRDLDCDLRNRSSGSHRSTSGSQLYVWAKDHPKVWGTKPVCAPRGSSLNQSLINQDLTVAPGSTLWLSCGVPPVPVAKGSISWTHVHPRRPNVSLLSLSLGGEHPVREMWVWGSLLLLPQATALDEGTYYCLRGNLTIERHVKVIARSAVWLWLLRTGGWIVPVVTLVYVIFCMVSLVAFLYCQRAFILRRKRKRMT
notes: Negative control: mouse T cells transduced with a vector that encodes only mtrCD19 and no CAR; also called mt19; mock transduced cells

Target: T1, FITC-recombinant mouse Fn14:human Fc (ENZO ALX-522-036F) (mouse, UniProt Q9CR75 28-80, FITC label (site not stated))
T1 construct: Bought reagent; also called FITC-recombinant Fn14; recombinant Fn14; not shown: human Fc
T1 sequence: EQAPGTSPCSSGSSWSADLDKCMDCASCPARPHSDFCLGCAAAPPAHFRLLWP
Assay: flow cytometry; transduced mouse T cells stained with FITC-recombinant mouse Fn14:human Fc
Description: Cell samples that were subjected to transduction with pFB vector containing the anti-Fn14 CAR and T2A+mtrCD19 (4A8H_mt19, 4A8L_mt19, 3G5H_mt19, 3G5L_mt19) construct or just the T2A+mtrCD19 (mt19) construct (from Day 8 of Example 1) were harvested, and 0.25×10⁶ cells in 100 μL of FACS buffer were placed in a 96 well round bottom plate. The plate was spun at 500 ref for 1 min at room temperature, and the supernatant was removed. Cells in each well were resuspended in 25 μL of Blocking buffer and incubated on ice for 10 min.
Cells were then added with 150 μL of FACS buffer and spun at 500 ref for 2 min, and the supernatant was removed. This washing step was repeated once more with 200 μL of FACS buffer.
For the same day FACS analysis, cells in each well were resuspended in 250 μL of FACS buffer and analyzed on flow cytometer. For the next day analysis, cells were diluted in 250 μL of Fixation buffer until analyzed the following day. Cells were stored on ice or 4° C., protected from light, until run on FACS machine.

| Binder | % anti-Fn14 CAR^+ of CD3^+ cells (staining with FITC-recombinant Fn14) [%] |
| --- | --- |
| B1 | 10.8 |
| B2 | 11.4 |
| B3 | 1.6 |
